The source of these data is article PMC12691643.

Holding throughout (experiment): affinity purification with mass spectrometry; HA-tagged TgWIP variants pulled down by the HA tag from lysates of DC2.4 cells infected 4 h at MOI 7; host partners by mass spectrometry; values are negative fold changes in peptide counts of the mutant immunoprecipitations relative to TgWIP^WT
Assay [1] has as its target TgWIP^(PRR3 mut), HA-tagged (Toxoplasma gondii).
Assay [2] addresses TgWIP^(WIRS mut), HA-tagged (Toxoplasma gondii).
Assay [3] has as its target TgWIP^Y150A/Y199A, HA-tagged (Toxoplasma gondii).
Assay [4] has as its target TgWIP^(PRR2 mut), HA-tagged (Toxoplasma gondii).

Several values for one entry are separate records, joined by “and”; a condition that tells them apart may be missing. Equal values may be shown once.

B1: Arhgef7, endogenous in murine DC2.4 cells (natural protein)
chain: MNSAEQTVTWLITLGVLESPKKTISDPEVFLQASLKDGVVLCRLLERLLPGTIEKVYPEPRNESECLSNIREFLRACGASLRLETFDANDLYQGQNFNKVLSSLVTLNKVTADIGLGSDSVCARPSSHRIKSFDSLGSQSSHSRTSKLLQSQYRSLDMTDNTNSQLVVRAKFNFQQTNEDELSFSKGDVIHVTRVEEGGWWEGTHNGRTGWFPSNYVREIKPSEKPVSPKSGTLKSPPKGFDTTAINKSYYNVVLQNILETEHEYSKELQSVLSTYLRPLQTSDKLSSANTSYLMGNLEEISSFQQVLVQSLEECTKSPEAQQRVGGCFLSLMPQMRTLYLAYCANHPSAVSVLTEHSEDLGEFMETKGASSPGILVLTTGLSKPFMRLDKYPTLLKELERHMEDYHPDRQDIQKSMTAFKNLSAQCQEVRKRKELELQILTEPIRSWEGDDIKTLGSVTYMSQVTIQCAGSEEKNERYLLLFPNLLLMLSASPRMSGFIYQGKLPTTGMTITKLEDSENHRNAFEISGSMIERILVSCTSQQDLHEWVEHLQKQTKVTSVSNPTIKPHSVPSHTLPSHPLTPSSKHADSKPVALTPAYHTLPHPSHHGTPHTTISWGPLEPPKTPKPWSLSCLRPAPPLRPSAALCYKEDLSKSPKTMKKLLPKRKPERKPSDEEFAVRKSTAALEEDAQILKVIEAYCTSAKTRQTLNSTWQGTDLMHNHVLADDDQSSLDSLGRRSSLSRLEPSDLSEDSEYDSIWTAHSYRMGSASRSRKESAPQVLLPEEEKIIVEETKSNGQTVIEEKSLVDTVYALKDEVQELRQDNKKMKKSLEEEQRARKDLEKLVRKVLKNMNDPAWDETNL
For the molecule B1, the negative fold change in peptide counts relative to TgWIP^WT is 8 fold in assay [1]; 2 fold in assay [2]; 3 fold and 2 fold in assay [3]; 4 fold in assay [4].

B2: Sorbs1 (Cap), endogenous in murine DC2.4 cells (natural protein)
chain: MSSECDVGSSKAVVNGLASGNHGPDKDMDPTKICTGKGTVTLRASSSYRGTPSSSPVSPQESPKHESKSGLEPEDPSADEWKLSSSADTNGNAQPSPLAAKGYRSVHPSLSADKPQGSPLLNEVSSSHIETDSQDFPPTSRPSSAYPSTTIVNPTIVLLQHNRDPASERRAGEQDPVPTPAELTSPGRASERRAKDASRRVVRSAQDLSDVSTDEVGIPLRNTERSKDWYKTMFKQIHKLNRDDDSDVHSPRYSFSDDTKSPLSVPRSKSEMNYIEGEKVVKRSATLPLPARSSSLKSSPERNDWEPLDKKVDTRKYRAEPKSIYEYQPGKSSVLTNEKMSRDISPEEIDLKNEPWYKFFSELEFGRPTNLEKDLSFCQAELEADLEKVETVNKSPSANSPQSSAVSPTPDITSEPPGYIYSSNFHAVKRESDGTPGGLASLENERQIYKSVLEGGDIPLQGLSGLKRPSSSASTKVDRKGGNAHMISSSSVHSRTFHTSNALGPGCKHKKPLSAAKACISEILPSKFKPRLSAPSALLQEQKSVLLPSEKAQSCENLCVSLNDSKRGLPLRVGGSIENLLMRSRRDYDSKSSSTMSLQEYGTSSRRPCPLSRKAGLHFSMFYRDMHQINRAGLSLGSISSSSVRDLASHFERSSLTLARGELGASQEGSEHIPKHTVSSRITAFEQLIQRSRSMPSLDFSGRLSKSPTPVLSRSGLTSARSAESLLESTKLRPREMDGMDSGGVYASPTCSNMADHALSFRSLVPSEPLSICSDELDHCSNVSNDSREGSGGSVHGDFPKHRLNKCKGTCPASYTRFTTIRKHEQQSSRQSDWRSDSRGDKNSLLRNIHLMSPLPFRLKKPLQQHPRQPPPSDSSESPAGQKADLPCHDPQDQPHSAGKPQVPTRLSSRHTMARLSHNSEPPLDRPAGLEDCTRAINNGNPVPYSDHGLDRNNNPQSELAAAHGDSESPRHFIPADYLESTEEFIRRRHDDKEKLLADQRRLKREQEEADIAARRHTGVIPTHHQFITNERFGDLLNIDDTAKRKSGLEMRPARAKFDFKAQTLKELPLQKGDVVYIYRQIDQNWYEGEHHGRVGIFPRTYIELLPPAEKAQPRKLAPVQVLEYGEAIAKFNFNGDTQVEMSFRKGERITLLRQVDENWYEGRIPGTSRQGIFPITYVDVLKRPLVKTPVDYIDLPYSSSPSRSATVSPQQPQAQQRRVTPDRSQPSLDLCSYQALYSYVPQNDDELELRDGDIVDVMEKCDDGWFVGTSRRTRQFGTFPGNYVKPLYL
Consider B2, for which the negative fold change in peptide counts relative to TgWIP^WT in assay [1] amounted to 30 fold; in assay [2], 2 fold; in assay [3], 1 fold; in assay [4] it was 14 fold.

B3: Sh3rf1, endogenous in murine DC2.4 cells (natural protein)
chain: MDESALLDLLECPVCLERLDASAKVLPCQHTFCKRCLLGIVGSRNELRCPECRTLVGSGVDELPSNILLVRLLDGIKQRPWKPGPGGGGGTTCTNTLRAQGSTVVNCGSKDLQSSQCGQQPRVQAWSPPVRGIPQLPCAKALYNYEGKEPGDLKFSKGDIIILRRQVDENWYHGEVSGVHGFFPTNFVQIIKPLPQPPPQCKALYDFEVKDKEADKDCLPFAKDDVLTVIRRVDENWAEGMLADKIGIFPISYVEFNSAAKQLIEWDKPPVPGVDTAECPSATAQSTSASKHPDTKKNTRKRHSFTSLTMANKSSQGSQNRHSMEISPPVLISSSNPTAAARISELSGLSCSAPSQVHISTTGLIVTPPPSSPVTTGPAFTFPSDVPYQAALGSMNPPLPPPPLLAATVLASTPSGATAAVAAAAAAAAAAGMGPRPVMGSSEQIAHLRPQTRPSVYVAIYPYTPRKEDELELRKGEMFLVFERCQDGWYKGTSMHTSKIGVFPGNYVAPVTRAVTNASQAKVSMSTAGQASRGVTMVSPSTAGGPTQKPQGNGVAGNPSVVPTAVVSAAHIQTSPQAKVLLHMSGQMTVNQARNAVRTVAAHSQERPTAAVTPIQVQNAACLGPASVGLPHHSLASQPLPPMAGPAAHGAAVSISRTNAPMACAAGASLASPNMTSAMLETEPSGRTVTILPGLPTSPESAASACGNSSAGKPDKDSKKEKKGLLKLLSGASTKRKPRVSPPASPTLDVELGAGEAPLQGAVGPELPLGGSHGRVGSCPTDGDGPVAAGTAALAQDAFHRKTSSLDSAVPIAPPPRQACSSLGPVMNEARPVVCERHRVVVSYPPQSEAELELKEGDIVFVHKKREDGWFKGTLQRNGKTGLFPGSFVENI
For the molecule B3, the negative fold change in peptide counts relative to TgWIP^WT in assay [1] worked out at 6 fold; in assay [2], 2 fold; in assay [3], 2 fold; in assay [4], 10 fold.

B4: Arhgef6, endogenous in murine DC2.4 cells (natural protein)
chain: MNPEERLVTWLISLGVLESPKKTVCDPEEFLKSSLKNGVVLCKLINRLLPGSVEKYCLEPQTEADCIDNINDFLKGCATLQVEVFEPDDLYSGANFSKVLNTLLAVNKATEDQLSERPCGRSSSLSAATSSQTNPQVAVPSTAPEQHSEEKAEMTENGSHQLIVKARFNFKQTNEDELSVCKGDIIYVTRVEEGGWWEGTLNGRTGWFPSNYVREIKPSERPLSPKAIKGFDTAPLTKNYYTVVLQNILDTEKEYAKELQSLLVTYLRPLQSNNNLSTVEFTCLLGNFEEVCTFQQTLCQALEECSKFPENQHKVGGCLLNLMPHFKSMYLAYCANHPSAVNVLTQHSDDLERFMENQGASSPGILILTTSLSKPFMRLEKYVTLLQELERHMEDTHPDHQDILKAIIAFKTLMGQCQDLRKRKQLELQILSEPIQAWEGDDIKTLGNVIFMSQVVMQHGACEEKEERYFLLFSSVLIMLSASPRMSGFMYQGKIPIAGMVVNRLDEIEGSDCMFEITGSTVERIVVHCNNNQDFQEWMEQLNRLTKGPTSCGSLSKTSSSSCSTHSSFSSTGQPRGPLEPPQIIKPWSLSCLRPAPPLRPSAALGYKERMSYILKESSKSPKTMKKFLHKRKTERKASEEEYVIRKSTAALEEDAQILKVIEAYCTSASFQQGTRKDSVPQVLLPEEEKLIIEETRSNGQTIIEEKSLVDTVYALKDEVKELKQENKKMKQCLEEELKSRKDLEKLVRKLLKQTDECIRSESSSKTSILQ
As to B4, the negative fold change in peptide counts relative to TgWIP^WT in assay [1] came to 7 fold; in assay [2], 2 fold; in assay [3] it was 2 fold; in assay [4] it was 3 fold.
